Data from patent publication US20150284762, “METHOD FOR PRODUCING PROTEIN-NUCLEIC ACID CONJUGATE, AND METHOD FOR DETECTING TARGET SUBSTANCE” (KYUSHU UNIVERSITY, NATIONAL UNIVERSITY CORPORATION, published 2015).

B1: FITC-thrombin DNA aptamer with T15 linker (30 mer) (ssDNA)
DNA: GGTTGGTGTGGTTGGTTTTTTTTTTTTTTT
B2: (BAP)-aptamer, single label (ssDNA)
DNA: GGTTGGTGTGGTTGGTTTTTTTTTTTTTTT
modifications: 3' single Z-QG-ddUTP crosslinked to NK14-BAP
B3: (BAP)-(PEG)3-aptamer, single label (ssDNA)
DNA: GGTTGGTGTGGTTGGTTTTTTTTTTTTTTT
modifications: 3' single Z-QG-(PEG)3-ddUTP crosslinked to NK14-BAP

Biological target: thrombin (UniProt P00734;P00734 P00734:328-363,P00734:364-622)
Test: ELONA

Binding result, binds:
B1, B2, B3
